Data on two molecules can be found in patent CN111434684A.

“And” between values parts separate entries of the source, which are not always exact repeats. Equal values may be shown once.

In experiment [1] the target is H7N9病毒的HA蛋白(购自ACROBiosystems) (H7N9 influenza virus). Briefly: ELISA, HA coated, negative control. (In an ELISA, binding on a coated surface is turned into a signal by an enzyme label.)
The target of experiment [2] is H7N9病毒 A/Anhui/1/2013 的血凝素HA (on live virus) (influenza A virus A/Anhui/1/2013 (H7N9)). Description: cell-based or functional assay.
The target of experiment [3] is H7N9病毒的HA蛋白(购自ACROBiosystems) (H7N9 influenza virus). Briefly: ELISA, HA coated, supernatant of 293F cells transfected with 5Q2 H and L genes.

Regarding 阴性对照 (ELISA, wells G, H), the 450nm in experiment [1] is 0.0675 OD450 and 0.0554 OD450.

B1: 抗H7N9全人源单克隆抗体5Q2 (antibody, V domains shown)
VH: QVQLVESGAEVKKPGASVKVSCKASGYIFTNYDINWVRQATGQGLEWMGWMSPDNGDTGFAQKFQGRVTMTRNTSITTAYMELSSLTSEDTAVYYCATGSADCNGGNCYSWFDPWGQGTLVTVSS
VL: SSELTQDPAVSVALGQTVRITCQGDRVRNYYASWYQQKPGQAPVLVIYGKSNRPSGIPDRFSGSSSGNTASLTITGAQAEDEADYYCSNRDTNGYHVLFGGGTKLTVLV
In experiment [2], B1 showed a 中和实验 (微量中和-ELISA, MDCK细胞) IC50 of 5.52 µg/mL. In addition, in experiment [3], the 450nm was 1.23 OD450 and 0.936 OD450 and 0.723 OD450.
